According to patent publication US20140298547:

How the values were obtained:
Assay in all cases: cell_activity
[1] = system: ZFP SBS18473 (monomer of eZFN8) (synthetic construct); conditions: as eZFN8 pair with SBS15590; in planta cut plus chimeric, 489/697 plants
[2] = system: ZFP SBS15590 (monomer of eZFN1 and eZFN8) (synthetic construct); conditions: in planta cut plus chimeric
[3] = system: ZFP SBS8196 (monomer of eZFN1) (synthetic construct); conditions: as eZFN1 pair with SBS15590; in planta cut plus chimeric, 524/1125 plants

ATTTTACAATCCTGTCCCTAGTGAGATGGGCGGGAGTCTTCAATCCTGTCCCTAGTGGATAAACTGCAAAAGGCGGATCA (double strand) [ELP locus eZFN1/eZFN8 binding region]
activity [1]: 70.2%
activity ([2]; as eZFN1 pair with SBS8196, 524/1125 plants): 46.6%
activity ([2]; as eZFN8 pair with SBS18473, 489/697 plants): 70.2%
activity [3]: 46.6%
